Data taken from PMC7617879.

Molecular target: catalytic domain of MMP-14 (MMP-14CAT) (human)
Test: enzyme inhibition assay

Ki: 0.76 nM
Substance: wild-type N-terminal domain of TIMP2 (N-TIMP2) (domain or fragment)
